Results taken from PMC11798926 (2024).

B1: myc-tagged SynDIG4 (wild type) [rat] / HA-tagged μ2 AP subunit [not stated] (parent complex)
chain 1: MSSEKSGLPDSVPHTSPPPYNAPQPPAEPPIPPPQTAPSSHHHHHHHYHQSGTATLPRLGAGGLASAAAGAQRGPSSSATLPRPPHHAPPGPAAGAPPPGCATLPRMPPDPYLQETRFEGPLPPPPPAAAAPPPPAPAPTAQAPGFVVPTHAGAVGTLPLGGYVAPGYPLQLQPCTAYVPVYPVGTPYASGTPGGPGVTSTLPPPPQGPGLALLEPRRPPHDYMPIAVLTTICCFWPTGIIAIFKAVQVRTALARGDLVSAEIASREARNFSFISLAVGIAAMVLCTILTVVIIIAAQHHENYWDP
chain 2: MIGGLFIYNHKGEVLISRVYRDDIGRNAVDAFRVNVIHARQQVRSPVTNIARTSFFHVKRSNIWLAAVTKQNVNAAMVFEFLYKMCDVMAAYFGKISEENIKNNFVLIYELLDEILDFGYPQNSETGALKTFITQQGIKSQHQTKEEQSQITSQVTGQIGWRREGIKYRRNELFLDVLESVNLLMSPQGQVLSAHVSGRVVMKSYLSGMPECKFGMNDKIVIEKQGKGTADETSKSGKQSIAIDDCTFHQCVRLSKFDSERSISFIPPDGEFELMRYRTTKDIILPFRVIPLVREVGRTKLEVKVVIKSNFKPSLLAQKIEVRIPTPLNTSGVQVICMKGKAKYKASENAIVWKIKRMAGMKESQISAEIELLPTNDKKKWARPPISMNFEVPFAPSGLKVRYLKVFEPKLNYSDHDVIKWVRYIGRSGIYETRC

Variants of: B1
Test: co-immunoprecipitation (IP: HA, blot: myc), quantified; HEK293T cells; second bar chart of panel D (SD4 vs AMPA); parent: 100; read off a plot

| percent of parent [%SD4] | Variant |
| --- | --- |
| ~65 | chain 1 Y223A, chain 1 I226A |
